# Measurements taken from IntAct's records for PubMed 20007317.
# B1: SAGA complex subunit SGF11 (Saccharomyces cerevisiae), Q03067 (parent)
# chain: MTEETITIDSISNGILNNLLTTLIQDIVARETTQQQLLKTRYPDLRSYYFDPNGSLDINGLQKQQESSQYIHCENCGRDVSANRLAAHLQRCLSRGARR
# partner: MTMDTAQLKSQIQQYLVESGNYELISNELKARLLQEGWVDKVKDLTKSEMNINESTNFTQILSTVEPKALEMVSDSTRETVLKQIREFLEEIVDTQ
# Variants of: B1
# Settings: with sus1_yeast SUS1, Q6WNK7
row,effect of a mutation on the interaction,Variant
1,decreasing interaction,MTEETITIDSISNGILNNALTTLIQDIVARETTQQQLLKTRYPDLRSYYFDPNGSLDINGLQKQQESSQYIHCENCGRDVSANRLAAHLQRCLSRGARR [L19A]
2,decreasing interaction,MTEETITIDSISNGALNNLLTTLIQDIVARETTQQQLLKTRYPDLRSYYFDPNGSLDINGLQKQQESSQYIHCENCGRDVSANRLAAHLQRCLSRGARR [I15A]
3,decreasing interaction,MTEETITIDSISNGILNALLTTLIQDIVARETTQQQLLKTRYPDLRSYYFDPNGSLDINGLQKQQESSQYIHCENCGRDVSANRLAAHLQRCLSRGARR [N18A]
